Results reported in US9713649 (CLEVELAND CLINIC FOUNDATION, dated 2017).
Primed or numbered codes have the meaning given here. Where no end group is shown, it is not given here. [ ]: non-standard residue; d: D form. The star is where a group is joined. MCC = 4-(N-maleimidomethyl)cyclohexane-1-carbonyl, from SMCC, O=C1C=CC(=O)N1C[C@H]1CC[C@H](C(=O)*)CC1; NOTA(2S-Bn(4-NHCS)) = O=C(O)CN1CCN(CC(=O)O)C[C@H](Cc2ccc(NC(=S)*)cc2)N(CC(=O)O)CC1; Amc = N-aminomethyl cyclohexanoic acid; ZJ = urea ligand Cys-C(O)-Glu; Ahx = NCCCCCC(=O)O; E′E = Glu-urea-Glu

Target: T1, Prostate specific membrane antigen (PSMA) (UniProt Q04609 1-750, limits assumed)
T1 construct: whole, on cells
T1 sequence (Q04609 whole entry): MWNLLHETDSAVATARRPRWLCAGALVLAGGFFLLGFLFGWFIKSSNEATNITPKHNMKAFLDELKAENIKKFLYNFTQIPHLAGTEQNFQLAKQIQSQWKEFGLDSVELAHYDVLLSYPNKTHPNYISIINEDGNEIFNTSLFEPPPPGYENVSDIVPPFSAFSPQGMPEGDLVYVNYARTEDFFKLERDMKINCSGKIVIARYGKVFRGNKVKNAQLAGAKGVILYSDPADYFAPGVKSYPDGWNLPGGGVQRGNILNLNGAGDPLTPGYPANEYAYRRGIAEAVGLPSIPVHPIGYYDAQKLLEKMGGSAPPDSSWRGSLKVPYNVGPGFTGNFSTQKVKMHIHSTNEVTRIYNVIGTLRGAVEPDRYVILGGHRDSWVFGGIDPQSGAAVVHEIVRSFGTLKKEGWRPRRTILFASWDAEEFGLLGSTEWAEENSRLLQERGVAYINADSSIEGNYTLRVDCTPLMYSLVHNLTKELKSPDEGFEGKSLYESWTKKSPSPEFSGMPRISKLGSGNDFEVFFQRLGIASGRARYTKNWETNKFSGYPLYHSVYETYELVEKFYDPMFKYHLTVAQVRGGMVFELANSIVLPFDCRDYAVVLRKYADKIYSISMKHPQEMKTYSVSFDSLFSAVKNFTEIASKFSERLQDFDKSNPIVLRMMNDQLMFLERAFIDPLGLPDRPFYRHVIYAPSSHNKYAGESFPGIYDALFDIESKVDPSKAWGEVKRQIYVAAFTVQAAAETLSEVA
Test: competitive binding on LNCaP or PC3-PIP cells; displacement of 12 nM N-[N-[(S)-1,3-dicarboxypropyl]carbamoyl]-S-[3H]-methyl-L-cysteine, scintillation counting
Method: Briefly, LNCaP or PC3-PIP cells (5×10^5) were incubated with different concentrations of ligands in the presence of 12 nM N—[N—[(S)-1,3-dicarboxypropyl]carbamoyl]-S-[^3H]-methyl-L-cysteine in a total volume of 300 µL for 1 hour at 37° C. The mixture was centrifuged at 3,000 g for 5 min at 4° C., then washed three times with 500 µL of cold PBS. Finally, 4 mL of EcoLume™ cocktail (MP Biomedicals) was added, and radioactivity was counted by scintillation counter. The concentration required to inhibit 50% of binding was determined (IC$50$) by GraphPad Prism 3.0.
Binding affinities of new compounds to PSMA.

Binder | IC50 [nM]
{E′E-Amc}-[Ahx][dE][dE][dE]YK(NOTA(2S-Bn(4-NHCS)))-NH2 (Tested unlabelled; also called E′EAmc-Ahx-dGlu-dGlu-dGlu-Tyr-Lys(Bn-NOTA)-NH2) [E′EAmc-Ahx-dEdEdEYK(Bn-NOTA)-NH2 (Compound 4)] | 4.6
{E′E-Amc}-[Ahx][dE][dE][dE]GYGGGC-NH2 [E′EAmc-Ahx-dEdEdEGYGGGC-NH2 (Compound 3)] | 7

These reach a lower IC50. Values come first.

IC50 [nM] | Binder
4.3 | {E′E}-[Ahx]EEEYK(NOTA(2S-Bn(4-NHCS)))-NH2 (Tested unlabelled; also called E′E-Ahx-Glu-Glu-Glu-Tyr-Lys(Bn-NOTA)-NH2) [E′E-Ahx-EEEYK(Bn-NOTA)-NH2 (Compound 5)]
2.5 | {ZJ-MCC}-[Ahx]YYYG (Synthetic urea-ligand peptide conjugate, unlabelled) [ZJ-MCC-Ahx-YYYG (Compound 2)]
